US11912794B2, “Modulation of structured polypeptide specificity” (BicycleRD Limited, priority 2011, dated 2024)
Ends that are not written are not given here.

Columns and labels:
Biotinylated hPK = biological target: T1, Biotinylated hPK (Homo sapiens, UniProt P03952); assay: Phage selections, abundance of sequences in selection outputs; format: binding; settings: for Frequency (relative abundance in the total selection outputs): randomised WPAR motif at positions 2, 3, 4 & 5 within the 06-34-03 sequence
T1 construct: IHPKA, from human plasma; purchased Innovative Research, Novi, MI, USA IHPKA; host or cells: human plasma
T1 sequence (P03952 20-638): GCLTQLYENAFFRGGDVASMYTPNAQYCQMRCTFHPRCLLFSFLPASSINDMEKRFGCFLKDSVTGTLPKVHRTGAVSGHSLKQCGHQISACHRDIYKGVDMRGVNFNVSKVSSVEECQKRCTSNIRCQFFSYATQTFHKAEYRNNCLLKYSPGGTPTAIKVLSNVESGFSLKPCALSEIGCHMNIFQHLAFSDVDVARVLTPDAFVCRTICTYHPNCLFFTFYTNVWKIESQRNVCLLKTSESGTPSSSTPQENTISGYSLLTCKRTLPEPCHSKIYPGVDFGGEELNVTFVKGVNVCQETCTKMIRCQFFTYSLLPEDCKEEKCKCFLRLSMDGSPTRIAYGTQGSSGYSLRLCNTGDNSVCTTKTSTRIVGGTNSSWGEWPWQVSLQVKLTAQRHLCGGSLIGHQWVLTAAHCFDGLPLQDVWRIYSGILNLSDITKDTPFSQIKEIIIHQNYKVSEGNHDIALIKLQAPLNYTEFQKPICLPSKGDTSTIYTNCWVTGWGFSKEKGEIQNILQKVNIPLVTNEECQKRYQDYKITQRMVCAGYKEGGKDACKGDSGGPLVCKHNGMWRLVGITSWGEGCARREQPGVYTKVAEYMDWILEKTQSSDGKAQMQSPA

[1] = biological target: biotinylated human plasma Kallikrein (Homo sapiens, UniProt P03952); assay: Phage binding assay of individual clones, randomisation of peptide domains
Chain of biotinylated human plasma Kallikrein (P03952 20-638): as above
Excerpt: Library construction: Small phage libraries were generated according to the methods of Heinis et al as described in ‘Cloning of phage libraries’ above. The sficx3ba primer was modified such that the bicycle-encoding portion was based on a parent 5×5 bicycle (5×5: two 5-residue loops) DNA sequence with only 4-6 codons randomized to NNS. The randomized codons were those encoding the peptide domain/motif of interest.
Assay of binding of individual clones: Library transformant colonies, or selection output colonies, were picked and grown as individual cultures in 2TY broth containing selective antibiotic. The picked colonies were DNA-sequenced using a QIAgen PyroMark Q96 DNA sequencer to reveal the amino-acid substitution present in each clone, and were assayed for human plasma Kallikrein binding as follows. The phage-containing supernatant was harvested from the culture and phage were cyclised with tris bromomethyl benzene(TBMB) based on the methods of Heinis et al (Nature Chemical Biology vol. 5 pp 502-507 (2009)). The purified phage from this process were assayed for binding to biotinylated human plasma Kallikrein using a homogeneous plate-based binding assay; assay read-out measured on a BMG Labtech Pherastar FS plate reader. The quantitative binding data from duplicate assay samples was averaged (mean) and expressed as signal:background. Assay data shown is representative of at least 2 independent experiments. The assay data was correlated with the peptide sequences.
The WPAR (SEQ ID NO: 18) motif identified from Example 1 was analysed in the context of the 06-34-03 peptide, in order to identify alternatives or improvements to the WPAR (SEQ ID NO: 18) motif. A library was constructed where positions 1, 6, 7, 8, 9 &10 of 06-34-03 were fixed and positions 2, 3, 4 & 5 were randomised (see ‘Randomisation of peptide domains—Library construction’ in Methods above). Selections against human plasma Kallikrein were performed at a variety of stringencies (see Phage selections' in Methods above). All output sequences were identified and analysed for target binding (see ‘Randomisation of peptide domains—Assay of binding of individual clones’ in Methods above). Table 17 lists each unique sequence, its relative abundance in the selection output (frequency), and a rank number according to target binding strength.
Selections against human plasma Kallikrein were performed with this library in order to study the non-WPAR (SEQ ID NO: 18) determinants of Kallikrein binding, and to isolate the optimal WPAR (SEQ ID NO: 18)-containing peptide sequence. Over 150 selection output sequences were isolated and screened for binding to human plasma Kallikrein (as described in Methods above). The sequences were ranked in order of Kallikrein binding and the top 50 sequences were aligned in Table 19. […]

[2] = randomised WPAR motif at positions 2, 3, 4 & 5 within the 06-34-03 sequence, 1 = best binding
[3] = WPAR domain fixed, positions 1, 6, 7, 8, 9 & 10 randomised, top 50

Substance	Rank (sequences ranked according to Kallikrein binding) [1, 3]	further results
SEQ ID NO: 84 (CSFPFRCTHQDLC; Synthetic sequence Kallikrein binder identified from selections using a randomised WPAR motif at positions 2, 3, 4 & 5 within the 06-34-03 sequence of PCT/EP2012/069898 (SEQ ID NO 58))		Frequency (relative abundance in the total selection outputs) (Biotinylated hPK): 2; Rank (sequences ranked according to Kallikrein binding) [1, 2]: 12
WPAR: phage clone: WPAR at positions 2-5 within the 06-34-03 sequence, TBMB-cyclised (also: TBMB-cyclised within the 06-34-03 context, the cysteines lie outside this motif)		Relative abundance of motif in selection output (Biotinylated hPK; 2nd stringency from High (1st value of cell)): 19%; Relative abundance of motif in selection output (Biotinylated hPK; 3rd stringency from High (2nd value of cell)): 13%; Relative abundance of motif in selection output (Biotinylated hPK; 4th stringency from High (3rd value of cell)): 22%; Relative abundance of motif in selection output (Biotinylated hPK; 5th stringency from High (4th value of cell)): 6%; Relative abundance of motif in selection output (Biotinylated hPK; stringency High): 17%; Relative abundance of motif in selection output (Biotinylated hPK; stringency LOW): 4%; Kallikrein binding in target binding assay [1]: optimal sequence for Kallikrein binding
SEQ ID NO: 123 (CTWPARCTHTDLC; Synthetic sequence Kallikrein binder containing a WPAR motif)	10	
SEQ ID NO: 128 (CAWPARCTHTDFC; Synthetic sequence Kallikrein binder containing a WPAR motif)	15	
SEQ ID NO: 117 (CPWPARCTHQDLC; Synthetic sequence Kallikrein binder containing a WPAR motif)	4	
SEQ ID NO: 161 (CSWPARCTHSDLC; Synthetic sequence Kallikrein binder containing a WPAR motif)	48	
SEQ ID NO: 129 (CMWPARCMHQDLC; Synthetic sequence Kallikrein binder containing a WPAR motif)	16	
SEQ ID NO: 125 (CAWPARCLHDDLC; Synthetic sequence Kallikrein binder containing a WPAR motif)	12	
SEQ ID NO: 127 (CAWPARCTHVDLC; Synthetic sequence Kallikrein binder containing a WPAR motif)	14	
SEQ ID NO: 92 (CSLPFKCTHQDLC; Synthetic sequence Kallikrein binder identified from selections using a randomised WPAR motif at positions 2, 3, 4 & 5 within the 06-34-03 sequence of PCT/EP2012/069898 (SEQ ID NO 58))		Frequency (relative abundance in the total selection outputs) (Biotinylated hPK): 1; Rank (sequences ranked according to Kallikrein binding) [1, 2]: 20
SEQ ID NO: 115 (CNWPARCTHQDLC; Synthetic sequence Kallikrein binder containing a WPAR motif)	1	
SEQ ID NO: 149 (CAWPARCTHTHLC; Synthetic sequence Kallikrein binder containing a WPAR motif)	36	
SEQ ID NO: 147 (CSWPARCIHQDLC; Synthetic sequence Kallikrein binder containing a WPAR motif)	34	
SEQ ID NO: 116 (CHWPARCTHQDLC; Synthetic sequence Kallikrein binder containing a WPAR motif)	3	
SEQ ID NO: 134 (CRWPARCTHQDLC; Synthetic sequence Kallikrein binder containing a WPAR motif)	21	
SEQ ID NO: 88 (CSLPFKCTHQDLC; Synthetic sequence Kallikrein binder identified from selections using a randomised WPAR motif at positions 2, 3, 4 & 5 within the 06-34-03 sequence of PCT/EP2012/069898 (SEQ ID NO 58))		Frequency (relative abundance in the total selection outputs) (Biotinylated hPK): 1; Rank (sequences ranked according to Kallikrein binding) [1, 2]: 16
SEQ ID NO: 153 (CAWPARCTHQTMC; Synthetic sequence Kallikrein binder containing a WPAR motif)	40	
SEQ ID NO: 137 (CSWPARCTHSHLC; Synthetic sequence Kallikrein binder containing a WPAR motif)	24	
SEQ ID NO: 85 (CSLPFRCTHQDLC; Synthetic sequence Kallikrein binder identified from selections using a randomised WPAR motif at positions 2, 3, 4 & 5 within the 06-34-03 sequence of PCT/EP2012/069898 (SEQ ID NO 58))		Frequency (relative abundance in the total selection outputs) (Biotinylated hPK): 3; Rank (sequences ranked according to Kallikrein binding) [1, 2]: 13
SEQ ID NO: 97 (CSLPFRCTHQDLC; Synthetic sequence Kallikrein binder identified from selections using a randomised WPAR motif at positions 2, 3, 4 & 5 within the 06-34-03 sequence of PCT/EP2012/069898 (SEQ ID NO 58))		Frequency (relative abundance in the total selection outputs) (Biotinylated hPK): 2; Rank (sequences ranked according to Kallikrein binding) [1, 2]: 25
SEQ ID NO: 143 (CPWPARCTHQNLC; Synthetic sequence Kallikrein binder containing a WPAR motif)	30	
SEQ ID NO: 156 (CEWPARCLHTDLC; Synthetic sequence Kallikrein binder containing a WPAR motif)	43	
SEQ ID NO: 89 (CSLPFRCTHQDLC; Synthetic sequence Kallikrein binder identified from selections using a randomised WPAR motif at positions 2, 3, 4 & 5 within the 06-34-03 sequence of PCT/EP2012/069898 (SEQ ID NO 58))		Frequency (relative abundance in the total selection outputs) (Biotinylated hPK): 4; Rank (sequences ranked according to Kallikrein binding) [1, 2]: 17
SEQ ID NO: 155 (CSWPARCVHQDMC; Synthetic sequence Kallikrein binder containing a WPAR motif)	42	
SEQ ID NO: 120 (CAWPARCTHTDLC; Synthetic sequence Kallikrein binder containing a WPAR motif)	7	
SEQ ID NO: 154 (CTWPARCLHQHMC; Synthetic sequence Kallikrein binder containing a WPAR motif)	41	
SEQ ID NO: 144 (CSWPARCTHTELC; Synthetic sequence Kallikrein binder containing a WPAR motif)	31	
SEQ ID NO: 75 (CSFPFRCTHQDLC; Synthetic sequence Kallikrein binder identified from selections using a randomised WPAR motif at positions 2, 3, 4 & 5 within the 06-34-03 sequence of PCT/EP2012/069898 (SEQ ID NO 58))		Frequency (relative abundance in the total selection outputs) (Biotinylated hPK): 17; Rank (sequences ranked according to Kallikrein binding) [1, 2]: 3
SEQ ID NO: 157 (CLWPARCLTTELC; Synthetic sequence Kallikrein binder containing a WPAR motif)	44	
